Results as given in patent publication US20230212587A1, “Mutant Hydroxyphenylpyruvate Dioxygenase Polypeptide, Encoding Gene Thereof and Use Therefor” (Beijing Dabeinong Biotechnology Co., Ltd., priority 2019, published 2023).
Changes are numbered by the printed parent chain. Names may count otherwise.

B1: BvHPPD-02: native Beta vulgaris HPPD, SEQ ID NO: 105 (protein, listed as Beta vulgaris)
chain: MGTLSPQPQTSPSQFKLVGYSNFIRVNPLSDLFPVKRFHHVEFWCGDATNVSRRFSWGLGMPIVAKSDLSTGNSVHASYLLRSGELHFLFTSPYSPSLSSPSSATIPTFSFSLFTSFLTSHGLAVRAVAVEVQDAEAAFHISVSNGASPVSPPIRLHDGVVLSEVHLYGDVVLRYVSTSSVVDGIFLPGFEEMLGESSFQELDFGLRRLDHAVGNVPELAPAIEYVKKFTGFHEFAEFTTEDVGTSESGLNSAVVANNDETVLFPMNEPVYGTKRKSQIQTYLEHNEGAGVQHLALMSEDIFWTLREMRKRSGLGGFEFMPSPPPTYYRNLRNRAADVLSEEQMKECEELGILVDKDDQGTLLQIFTKPIGDRPTMFIEIIQRIGCMMKDEEGKVYQKGGCGGFGKGNFSELFKSIEEYEKTLERKPIADTNAT
modifications: BvHPPD Amino Acid Sequence
B2: BvHPPDm-F372A-02: Beta vulgaris HPPD mutant F372A, SEQ ID NO: 108 (protein)
chain: B1 chain with F366A
modifications: BvHPPDm-F372A Amino Acid Sequence
B3: MsHPPD-02: native Medicago sativa HPPD, SEQ ID NO: 99 (protein, listed as Medicago sativa)
chain: MAIETETQTQTGFKLVGFKNFVRANPKSDRFKVKRFHHVEFWCTDATNTARRFSHGLGMPIVAKSDLSTGNQTHASYLLRSGDLNFLFSAAYSPSISLSSPSSTAAIPTFSASNCFSFSASHGLAVRAVAVEVEDAELAFTTSVNNGAIPSSPPVILENHVKLAEVRLYGDVVLRYVSYNDPNPNQNPNLLFLPGFERVSDESSNSSLDFGIRRLDHAVGNVPELSSAVKYVKDFTGFHEFAEFTAEDVGTSESGLNSVVLANNEETVLLPMNEPVYGTKRKSQIETYLEHNEGAGLQHLALKSEDIFRTLREMRKRSGVGGFEFMPSPPVTYYRNLKNRVGDVLSDEQIKECEELGILVDRDDQGTLLQIFTKPIGDRPTIFIEIIQRVGCMLKDEEGKEYQKGGCGGFGKGNFSELFKSIEEYEKTLETRRTA
modifications: MsHPPD Amino Acid Sequence
B4: MsHPPDm-F372A-02: Medicago sativa HPPD mutant F372A, SEQ ID NO: 102 (protein)
chain: B3 chain with F372A
modifications: MsHPPDm-F372A Amino Acid Sequence
B5: HaHPPDm-F372A-02: Helianthus annuus HPPD mutant F372A, SEQ ID NO: 96 (protein)
chain: MGTEATVAAVVAGDESDHPTSAFKLVGFKNFIRTNPMSDKFTVKNFHHIEFWCSDATNTARRFSWGLGMPIIFKSDLSTGNSTHASYLLRSGHLNFLFTAPYSPSISPTTTTASIPTFSHSASRHFTATHGLAVRAIAVEVEDAETAFAVSVANGAKPSSPPVTLGHNDVVLSEVKLYGDVVLRYVSYKNNTNNNNNNDNDNYIFLPGFEAMDKTSSFQELDYGIRRLDHAVGNVPELAPAVDYVKSFTGFHEFAEFTAEDVGTSESGLNSVVLACNSEMVLIPMNEPVYGTKRKSQIQTYLEHNEGAGVQHLALASEDIFRTLREMRKRSGVGGFEFMPSPPPTYYRNLKSRAGDVLSDEQIKECEELGILVDRDDQGTLLQIATKPVGDRPTIFIEIIQRVGCMVKDDEGKVQQKAGCGGFGKGNFSELFKSIEEYEKTLEARSTTAAA
modifications: HaHPPDm-F372A Amino Acid Sequence
B6: ZmHPPD-02: native Zea mays HPPD, SEQ ID NO: 17 (protein)
chain: MPPTPTAAAAGAAVAAASAAEQAAFRLVGHRNFVRFNPRSDRFHTLAFHHVELWCADAASAAGRFSFGLGAPLAARSDLSTGNSAHASLLLRSGSLSFLFTAPYAHGADAATAALPSFSAAAARRFAADHGLAVRAVALRVADAEEAFRTSVAAGARPAFGPVDLGRGFRLAEVELYGDVVLRYVSYPDGAAGEPFLPGFEGVASPGAADYGLSRFDHIVGNVPELAPAAAYFAGFTGFHEFAEFTTEDVGTAESGLNSMVLANNSENVLLPLNEPVHGTKRRSQIQTFLDHHGGPGVQHMALASDDVLRTLREMQARSAMGGFEFMAPPTSDYYDGVRRRAGDVLTEAQIKECQELGVLVDRDDQGVLLQIFPKPVGDRPTLFLEIIQRIGCMERDEKGQEYQKGGCGGFGKGNFSQLFKSIEDYEKSLEAMQAAAAATAQGS
modifications: Zea mays; ZmHPPD Amino Acid Sequence (Zea mays)

tested on: Arabidopsis thaliana T1 plants; assay: Topramezone tolerance of transgenic Arabidopsis thaliana T1 plants (pesticide damage grade by bleached leaf area, score, resistance evaluation); type: in vivo; details: HPPDs from different species; number of plants (of 16) in this grade; topramezone 25 g ai/ha (1x), 7 DAT
How it was run: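 Herbicide tolerance was judged per plant on a bleaching scale (grade 0 no bleaching to grade 3 fully bleached) 7 DAT. Topramezone doses were 0, 25, 50 and 100 g ai/ha on 18-day-old T1 and wild-type plants.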

In order of rising “Classification and statistics of pesticide damage grade Grade 0” value:
1. B1  0
2. B2  0
3. B3  0
4. B5  0
5. B6  0
6. B4  5

In order of rising “Classification and statistics of pesticide damage grade Grade 1” value:
1. B1  0
2. B3  0
3. B6  0
4. B2  6
5. B4  7
6. B5  8

In order of falling “Classification and statistics of pesticide damage grade Grade 2” value:
1. B2  10
2. B5  8
3. B4  4
4. B1  0
5. B3  0
6. B6  0

In order of falling “Classification and statistics of pesticide damage grade Grade 3” value:
1. B1  16
2. B3  16
3. B6  16
4. B2  0
5. B4  0
6. B5  0

same assay, conditions: HPPDs from different species; number of plants (of 16) in this grade; topramezone 100 g ai/ha (4x), 7 DAT

In order of falling “Classification and statistics of pesticide damage grade Grade 0” value:
1. B1  0
2. B2  0
3. B3  0
4. B4  0
5. B5  0
6. B6  0

In order of falling “Classification and statistics of pesticide damage grade Grade 1” value:
1. B4  4
2. B5  2
3. B1  0
4. B2  0
5. B3  0
6. B6  0

In order of falling “Classification and statistics of pesticide damage grade Grade 2” value:
1. B5  12
2. B4  9
3. B2  4
4. B1  0
5. B3  0
6. B6  0

In order of rising “Classification and statistics of pesticide damage grade Grade 3” value:
1. B5  2
2. B4  3
3. B2  12
4. B1  16
5. B3  16
6. B6  16

same assay, conditions: HPPDs from different species; score for pesticide damage 0-100; topramezone 25 g ai/ha (1x), 7 DAT

In order of falling Scores:
1. B1  100
2. B3  100
3. B6  100
4. B2  54
5. B5  50
6. B4  31

same assay, conditions: HPPDs from different species; score for pesticide damage 0-100; topramezone 100 g ai/ha (4x), 7 DAT

In order of rising Scores:
1. B4  65
2. B5  67
3. B2  92
4. B1  100
5. B3  100
6. B6  100

same assay, conditions: HPPDs from different species; topramezone 25 g ai/ha (1x), 7 DAT

With B1 the Resistance evaluation was “non-resistant (non-resistant plants (scores 68-100))”.
With B2 the Resistance evaluation was “poorly resistant (poorly resistant plants (scores 34-67))”.
With B3 the Resistance evaluation was “non-resistant (non-resistant plants (scores 68-100))”.
In the case of B4, the Resistance evaluation is reported as “moderately resistant (moderately resistant plants (scores 16-33))”.
In the case of B5, the Resistance evaluation is reported as “poorly resistant (poorly resistant plants (scores 34-67))”.
B6 was tested, and the Resistance evaluation was “non-resistant (non-resistant plants (scores 68-100))”.

same assay, conditions: HPPDs from different species; topramezone 100 g ai/ha (4x), 7 DAT

In the case of B1, the Resistance evaluation is reported as “non-resistant (non-resistant plants (scores 68-100))”.
In the case of B2, the Resistance evaluation is reported as “non-resistant (non-resistant plants (scores 68-100))”.
B3 was tested, and the Resistance evaluation was “non-resistant (non-resistant plants (scores 68-100))”.
B4 was tested, and the Resistance evaluation was “poorly resistant (poorly resistant plants (scores 34-67))”.
With B5 the Resistance evaluation was “poorly resistant (poorly resistant plants (scores 34-67))”.
For B6, the Resistance evaluation was “non-resistant (non-resistant plants (scores 68-100))”.
